Laboratory results from article doi:10.1101/2024.12.11.628028 (bioRxiv, 2024).

Target: the molecule itself
Assay: crystal structure

B1: Nicotinamide phosphoribosyltransferase (NAMPT), human, with N terminal His-tag (enzyme)
chain: MNPAAEAEFNILLATDSYKVTHYKQYPPNTSKVYSYFECREKKTENSKLRKVKYEETVFYGLQYILNKYLKGKVVTKEKIQEAKDVYKEHFQDDVFNEKGWNYILEKYDGHLPIEIKAVPEGFVIPRGNVLFTVENTDPECYWLTNWIETILVQSWYPITVATNSREQKKILAKYLLETSGNLDGLEYKLHDFGYRGVSSQETAGIGASAHLVNFKGTDTVAGLALIKKYYGTKDPVPGYSVPAAEHSTITAWGKDHEKDAFEHIVTQFSSVPVSVVSDSYDIYNACEKIWGEDLRHLIVSRSTQAPLIIRPDSGNPLDTVLKVLEILGKKFPVTENSKGYKLLPPYLRVIQGDGVDINTLQEIVEGMKQKMWSIENIAFGSGGGLLQKLTRDLLNCSFKCSYVVTNGLGINVFKDPVADPNKRSKKGRLSLHRTPAGNFVTLEEGKGDLEEYGQDLLHTVFKNGKVTKSYSFDEIRKNAQLNIELEAAHH
B1: binds.
